Experiment [1] has as its system THP-1 cells. As to the kind of experiment: Inhibition of TNF-α shedding from THP-1 cells (ELISA). The experiment is classed as cell-based, human. To be noted: 100 ng/ml PMA, 6 h, 50 to 500 nM. As for the experimental part:
FIG. 3. Effects of mutations in N-TIMP-3 on inhibition of cellular shedding of TNF-α. THP-1 cells (2.5×10^6/ml) growing in serum-free RPMI-1640 medium were stimulated with 100 ng/ml PMA for 20 min before adding various concentrations of N-TIMP-3 (wild-type and mutants). Cells were allowed to grow for another 6 hr and conditioned media were collected for the ELISA assays.
Inhibition of TNF-α shedding from THP-1 cells—All TIMP solutions were dialyzed against 20 mM Tris-HCl (pH 7.0), 150 mM NaCl and 20% glycerol before use. Human monocyte THP-1 cells cultured in RPMI-1640 medium supplemented with 5% fetal calf serum were harvested, extensively washed and reseeded into serum-free medium at 2.5×10^6 cells/ml. […] The amount of soluble TNF-α released into the medium was measured using sandwich enzyme-linked immunosorbent assay, as described by Engelberts et al. (30) with modifications. The released TNF-α was absorbed to microtiter plates coated with mouse monoclonal anti-human TNF-α antibody BD551220 (1:200 dilution), and the bound TNF-α was detected using biotinylated mouse monoclonal anti-human TNF-α: antibody BD554511 (1:500 dilution) and streptavidin conjugated with horse radish peroxidase, and 3,3′,5,5′-tetramethylbenzidine as peroxidase substrate (KPL, Guildford, UK). The plates were read at 450 nm with an ELX808 plate reader (BIO-TEK Instruments Inc). […]

For experiment [2], the system named is monocyte-derived macrophages (MDM). Description: TNFα release by monocyte-derived macrophages (ELISA). The class given is cell-based, human. To be noted: for EC50: 10 ng/ml LPS, read-out: EC50 for inhibition of LPS stimulated TNFα release by MDM; for Effect on basal TNFα release by MDM: no LPS. As for the experimental part:
FIG. 9. The effect of TIMP-3 mutants on TNFα release by monocyte-derived-macrophages (MDM). […] Data is normalised to % LPS stimulation.
To address the efficacy of TMP-3 mutants on MDM, MDM from a healthy subject were cultured in the laboratory and stimulated with LPS. The effect of TIMP-3 mutants on MMP-9 activity and TNFα was measured.
This method was adapted from Dransfield et al., [7] and performed under sterile conditions. Blood was collected into EDTA (2% W/v). Dextran solution (6% w/v) was added to the whole blood in volumes of 10 ml per 20 ml blood and the final volume adjusted to 50 ml in Dulbecco's PBS. The samples were allowed to sediment at room temperature for 45 min. After sedimentation, the upper leukocyte rich layer was centrifuged at 400×g for 10 min, 4° C. and the supernatant discarded. The pellets containing the cells were resuspended in Dulbecco's PBS and centrifuged for a second time as before.
The gradient consisted of three separate concentrations of Percoll™. A ‘100% v/v’ Percoll™ solution was prepared from 90% v/v Percoll™ containing 10% v/v 10×PBS. The gradient was then prepared as follows: 4 ml 81% v/v Percoll was added to a 15 ml Falcon tube. This was overlaid by 4 ml 70% v/v Percoll. The cell pellet was resuspended in 3 ml of 55% v/v Percoll™ and then overlaid onto the pre-prepared gradient. The cells were centrifuged at 750×g for 20 min at 4° C. The peripheral blood mononuclear cells (PBMCs) were harvested from the 55%/70% interface (top layer) and the polymorphonuclear (PMN) cells remained at the 70%/81% interface (bottom layer). PBMCs were washed twice by centrifugation in sterile PBS.
PBMCs were washed in serum-containing separation buffer (sterile PBS, 0.5% w/v bovine serum albumin (BSA), 2 mM EDTA. The cells were diluted 1:100 in Kimura stain and counted using a haemocytometer. The cell pellet was resuspended with the following ratio of reagents from the monocyte isolation kit. 60 μl separation buffer, 20 μl Fc receptor (FcR) blocking reagent and 20 μl Hapten Conjugated Antibody cocktail were added to 10^7 cells and incubated at 6-12° C. for 5 min. The cells were washed twice (5 min, 4° C., 250×g) in separation buffer in a volume 10-20 times higher than the labelling volume. The cell pellet was resuspended in: 60 μl separation buffer, 20 μl FcR blocking reagent, 20 μl MACS anti-hapten microbeads and 5 μl CD15 microbeads (to remove any contaminating neutrophils) per 10^7 cells and incubated at 6-12° C. for 15 min. The cells were washed (5 min, 4° C., 250×g) and resuspended in 500 μl separation buffer. The magnetic column was prepared by washing with 3 ml separation buffer. […]
TNFα was measured using a commercially available ELISA kit and MMP-9 was measured using a Fluorokine kit.
Background: ELISA stands for enzyme-linked immunosorbent assay.

Experiment [3] addresses T1, catalytic domain of stromelysin 1 (MMP-3(ΔC)) (Homo sapiens, UniProt P08254).
T1 construct: the catalytic domains of stromelysin 1 (MMP-3(ΔC)) and membrane-type 1 MMP (MMP-14)
The following applies: Table I; data taken from ref. 8; read-out: Ki(app) MMP-3(ΔC); cited from earlier work.

T1 sequence (P08254 100-272 limits assumed, stated change not applied): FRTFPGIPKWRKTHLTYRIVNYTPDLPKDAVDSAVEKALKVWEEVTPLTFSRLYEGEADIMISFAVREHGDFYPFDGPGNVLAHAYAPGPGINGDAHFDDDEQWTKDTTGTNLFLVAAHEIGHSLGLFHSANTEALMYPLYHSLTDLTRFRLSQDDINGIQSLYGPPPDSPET

B1: -1A: N-TIMP-3 mutant with the addition of an N-terminal alanine extension (-1A) (protein)
chain: ACTCSPSHPQDAFCNSDIVIRAKVVGKKLVKEGPFGTLVYTIKQMKMYRGFTKMPHVQYIHTEASESLCGLKLEVNKYQYLLTGRVYDGKMYTGLCNFVERWDQLTLSQRKGLNYRYHLGCN
Regarding B1, the “Inhibition of PMA-stimulated release of TNF-α” value in experiment [1] is reported as “only slightly reduced inhibitory activity”.

B2: (-2A)N-TIMP-3: N-TIMP-3 mutant with two alanine residues on the N-terminal side of Cysteine1 of the TIMP-3 sequence (protein)
chain: AACTCSPSHPQDAFCNSDIVIRAKVVGKKLVKEGPFGTLVYTIKQMKMYRGFTKMPHVQYIHTEASESLCGLKLEVNKYQYLLTGRVYDGKMYTGLCNFVERWDQLTLSQRKGLNYRYHLGCN
The term EC50 denotes the concentration at which the effect is half-maximal. On to B2, for which, in experiment [2], the EC50 was about 0.18 µM and the “Effect on basal TNFα release by MDM” value was “little effect”.

B3: N-TIMP-3: N-terminal inhibitory domain of TIMP-3 (residues 1 to 121), C-terminally His-tagged, wild-type (protein)
chain: CTCSPSHPQDAFCNSDIVIRAKVVGKKLVKEGPFGTLVYTIKQMKMYRGFTKMPHVQYIHTEASESLCGLKLEVNKYQYLLTGRVYDGKMYTGLCNFVERWDQLTLSQRKGLNYRYHLGCN
For B3, in experiment [3], the Ki is 0.067 ± 0.0028 µM. For the same molecule, in experiment [1], the “Inhibition of PMA-stimulated release of TNF-α” value is “effectively inhibited”. Besides, in experiment [2], the EC50 is about 0.18 µM and the “Effect on basal TNFα release by MDM” value is on record as “little effect”.

Source of the values: US20090318342A1, “Compounds” (IMPERIAL INNOVATIONS LIMITED, priority 2005, published 2009).
